± gives the standard deviation of the averaged measurements.

Protein stability index data for 67 sequences are collected here from the supplement of paper PMC10724198.

The data set deals with Saccharomyces cerevisiae. Nature of the data set: protein stability index of tFT-peptide fusion (C-terminal peptide) (PSI (0-1 scale)); higher = more stable (slower turnover). The note with it: temperature: 30 C. How it is done: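 MPS profiling in S. cerevisiae of the yeast C-terminome library: the last 12 aa of each annotated ORF are fused to the C-terminus of a sfGFP-mCherry timer, after a GGGS linker. Cells are FACS-sorted into 8 mCherry/sfGFP bins and deep-sequenced. PSI runs from 0 (unstable) to 1 (stable); wild type and das1Δ backgrounds, two technical replicates each.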

Where [1] appears, read: genetic background: das1 deletion.

As to LCEFLKGVQSAL [DAK1 C-terminal 12 aa], the protein stability index is 0.7137 ± 0.005 under setting [1] and 0.683 ± 0.011 (genetic background: wild type).

LCLLFFTFSLFF [GAS4 C-terminal 12 aa]: the protein stability index worked out at 0.3594 ± 0.0027 under setting [1] and 0.371 ± 0.016 (genetic background: wild type).

For LDDNELFKNVWS [AGE2 C-terminal 12 aa], the protein stability index is, setting by setting: under setting [1], 0.728 ± 0.017; (genetic background: wild type) 0.713 ± 0.017.

Regarding LDVVKSRGSKHS [HSU1 C-terminal 12 aa], the protein stability index was determined as 0.7099 ± 0.003 under setting [1] and 0.7 ± 0.062 (genetic background: wild type).

In the case of LEKDTRQDTKAN [MCO10 C-terminal 12 aa], the protein stability index is, setting by setting: under setting [1], 0.693 ± 0.0045; (genetic background: wild type) 0.671 ± 0.025.

As for LENLSQEYCSEI [YBR096W C-terminal 12 aa], the protein stability index is 0.715 ± 0.029 under setting [1] and 0.72 ± 0.023 (genetic background: wild type).

Regarding LEVYASGNPNAT [NDC1 C-terminal 12 aa], the protein stability index under setting [1] was 0.697 ± 0.016 and the protein stability index (genetic background: wild type) was 0.692 ± 0.0073.

On to LEWLSNNLKNQS [ARF2 C-terminal 12 aa], for which the protein stability index reads like this: under setting [1], 0.702 ± 0.0047; (genetic background: wild type) 0.714 ± 0.041.

Take LEYLQDTYQVLK [FAR3 C-terminal 12 aa]: the protein stability index stood at 0.702 ± 0.031 under setting [1] and 0.733 ± 0.01 (genetic background: wild type).

LEYYSNRDNDMN [RIF1 C-terminal 12 aa] showed a protein stability index under setting [1] of 0.672 ± 0.042 and a protein stability index (genetic background: wild type) of 0.69 ± 0.026.

As for LFSDKMEPLFKK [AIF1 C-terminal 12 aa], the protein stability index reads like this: under setting [1], 0.746 ± 0.018; (genetic background: wild type) 0.738 ± 0.012.

As for LGIVIKRGKSLK [YJU2 C-terminal 12 aa], the protein stability index is 0.7248 ± 0.0027 under setting [1] and 0.738 ± 0.024 (genetic background: wild type).

On to LGVVSKMLVTCK [CIA2 C-terminal 12 aa], for which the protein stability index by setting is: under setting [1], 0.303 ± 0.026; (genetic background: wild type) 0.326 ± 0.0041.

Consider LIALNRYIEDLH [MRP20 C-terminal 12 aa], for which the protein stability index turned out to be 0.6999 ± 0.0024 under setting [1] and 0.695 ± 0.007 (genetic background: wild type).

With LIEDVNKLKIKA [SOV1 C-terminal 12 aa], the protein stability index runs as follows: under setting [1], 0.634 ± 0.029; (genetic background: wild type) 0.645 ± 0.025.

For the sequence LISRRREDEERN [YPL216W C-terminal 12 aa], the protein stability index is, setting by setting: under setting [1], 0.788 ± 0.038; (genetic background: wild type) 0.726 ± 0.037.

LIVVLLLLLLVL [SYN8 C-terminal 12 aa] yielded a protein stability index under setting [1] of 0.446 ± 0.0069 and a protein stability index (genetic background: wild type) of 0.545 ± 0.12.

With LKEASRYILEVY [MET10 C-terminal 12 aa], the protein stability index is, setting by setting: under setting [1], 0.28 ± 0.013; (genetic background: wild type) 0.31 ± 0.0096.

Turning to LKGILNLFSKIR [KRE29 C-terminal 12 aa], the protein stability index is, setting by setting: under setting [1], 0.671 ± 0.0078; (genetic background: wild type) 0.699 ± 0.025.

Sequence LKHFVSAPSSSL [MRK1 C-terminal 12 aa] had a protein stability index under setting [1] of 0.699 ± 0.011 and a protein stability index (genetic background: wild type) of 0.656 ± 0.0095.

Take LKNKKKLYKTKV [PPQ1 C-terminal 12 aa]: the protein stability index under setting [1] came out at 0.7157 ± 0.0043 and the protein stability index (genetic background: wild type) is 0.694 ± 0.017.

Turning to LKTSGRYQEDVW [NCP1 C-terminal 12 aa], the protein stability index stood at 0.706 ± 0.02 under setting [1] and 0.702 ± 0.02 (genetic background: wild type).

LLEVSDQAFEPE [RGD1 C-terminal 12 aa]: the protein stability index under setting [1] came to 0.6967 ± 0.0019 and the protein stability index (genetic background: wild type) was 0.683 ± 0.053.

Sequence LLGENLSDMPSL [RDS1 C-terminal 12 aa] showed a protein stability index under setting [1] of 0.6893 ± 0.0025 and a protein stability index (genetic background: wild type) of 0.693 ± 0.021.

On to LLQHPWLDAHII [STE11 C-terminal 12 aa], for which the protein stability index worked out at 0.722 ± 0.028 under setting [1] and 0.7253 ± 0.0019 (genetic background: wild type).

In the case of LLQVCFIGVVCE [IRC21 C-terminal 12 aa], the protein stability index runs as follows: under setting [1], 0.275 ± 0.0082; (genetic background: wild type) 0.2885 ± 0.0018.

LNAVESLKEAST [TIM11 C-terminal 12 aa] showed a protein stability index under setting [1] of 0.69 ± 0.0078 and a protein stability index (genetic background: wild type) of 0.686 ± 0.029.

In the case of LNKIKNIRKKKQ [SNQ2 C-terminal 12 aa], the protein stability index under setting [1] came out at 0.705 ± 0.031 and the protein stability index (genetic background: wild type) is 0.393 ± 0.021.

Regarding LNLPVQVEKKEK [MMR1 C-terminal 12 aa], the protein stability index runs as follows: under setting [1], 0.69221 ± 0.00034; (genetic background: wild type) 0.692 ± 0.013.

For the sequence LNSYEEEANGST [SHG1 C-terminal 12 aa], the protein stability index was 0.7062 ± 0.0036 under setting [1] and 0.734 ± 0.028 (genetic background: wild type).

Regarding LQHYRTHLKKGQ [NRG1 C-terminal 12 aa], the protein stability index reads like this: under setting [1], 0.7007 ± 0.0015; (genetic background: wild type) 0.6784 ± 0.0039.

Regarding LQSLPISSWRCT [YBR220C C-terminal 12 aa], the protein stability index under setting [1] worked out at 0.701 ± 0.0098 and the protein stability index (genetic background: wild type) came to 0.6711 ± 0.003.

As to LQVILMSLGAIA [MDM31 C-terminal 12 aa], the protein stability index came to 0.446 ± 0.014 under setting [1] and 0.508 ± 0.0098 (genetic background: wild type).

For the sequence LRANANMPTPSL [RLF2 C-terminal 12 aa], the protein stability index runs as follows: under setting [1], 0.7083 ± 0.0022; (genetic background: wild type) 0.665 ± 0.0083.

Take LRKDRQVEYPYK [MGM101 C-terminal 12 aa]: the protein stability index runs as follows: under setting [1], 0.723 ± 0.033; (genetic background: wild type) 0.779 ± 0.035.

Turning to LRLKYNDANTKL [VTC1 C-terminal 12 aa], the protein stability index runs as follows: under setting [1], 0.68 ± 0.011; (genetic background: wild type) 0.6552 ± 0.0047.

With LSCRKNLSAFAT [YOL085C C-terminal 12 aa], the protein stability index runs as follows: under setting [1], 0.658 ± 0.018; (genetic background: wild type) 0.666 ± 0.0096.

Turning to “LSIMKTLVPWTL [YML054C-A C-terminal 12 aa]”, the protein stability index worked out at 0.712 ± 0.024 under setting [1] and 0.6528 ± 0.0022 (genetic background: wild type).

Take LTEILSKVFNRL [DUG2 C-terminal 12 aa]: the protein stability index runs as follows: under setting [1], 0.702 ± 0.018; (genetic background: wild type) 0.678 ± 0.033.

With LTFDVKLVSMKN [FPR3 C-terminal 12 aa], the protein stability index by setting is: under setting [1], 0.679 ± 0.025; (genetic background: wild type) 0.667 ± 0.046.

On to LTLARYRAKGML [TOM71 C-terminal 12 aa], for which the protein stability index runs as follows: under setting [1], 0.6936 ± 0.0042; (genetic background: wild type) 0.657 ± 0.018.

For the sequence LVICCQRCRRNC [YPL277C C-terminal 12 aa], the protein stability index stood at 0.69 ± 0.0082 under setting [1] and 0.552 ± 0.051 (genetic background: wild type).

In the case of LVKLYISFFFMC [YBR144C C-terminal 12 aa], the protein stability index was found to be 0.313 ± 0.0049 under setting [1] and 0.136 ± 0.0087 (genetic background: wild type).

As for LVLLLQIYFFSF [YGR242W C-terminal 12 aa], the protein stability index was found to be 0.277 ± 0.03 under setting [1] and 0.296 ± 0.0078 (genetic background: wild type).

Consider LVRQKREHEKKE [GPT2 C-terminal 12 aa], for which the protein stability index amounted to 0.713 ± 0.0084 under setting [1] and 0.658 ± 0.021 (genetic background: wild type).

For LVYRDGEISELK [PAT1 C-terminal 12 aa], the protein stability index under setting [1] amounted to 0.7114 ± 0.0045 and the protein stability index (genetic background: wild type) turned out to be 0.703 ± 0.13.

As to LWNEFLSSINEK [ECM31 C-terminal 12 aa], the protein stability index is, setting by setting: under setting [1], 0.736 ± 0.036; (genetic background: wild type) 0.743 ± 0.06.

As to MAMPPGQSQPQY [DHH1 C-terminal 12 aa], the protein stability index is, setting by setting: under setting [1], 0.727 ± 0.0093; (genetic background: wild type) 0.713 ± 0.034.

As to MCSIINIQQWYV [YGL182C C-terminal 12 aa], the protein stability index is 0.6733 ± 0.0013 under setting [1] and 0.627 ± 0.01 (genetic background: wild type).

As for MDGFNDPFAAAA [GIP2 C-terminal 12 aa], the protein stability index is, setting by setting: under setting [1], 0.736 ± 0.028; (genetic background: wild type) 0.752 ± 0.072.

As for “MDSGLDLEFCKP [YKR075W-A C-terminal 12 aa]”, the protein stability index by setting is: under setting [1], 0.687 ± 0.019; (genetic background: wild type) 0.692 ± 0.045.

As for MESNDNLERVLS [APS1 C-terminal 12 aa], the protein stability index was 0.673 ± 0.038 under setting [1] and 0.695 ± 0.032 (genetic background: wild type).

For MISGPSSSSSAP [CYC3 C-terminal 12 aa], the protein stability index stood at 0.719 ± 0.012 under setting [1] and 0.741 ± 0.081 (genetic background: wild type).

In the case of MKVLQLGFSWGG [IRC7 C-terminal 12 aa], the protein stability index amounted to 0.7148 ± 0.0053 under setting [1] and 0.6814 ± 0.0067 (genetic background: wild type).

As for MMNFFRDLKYGH [ODC2 C-terminal 12 aa], the protein stability index is, setting by setting: under setting [1], 0.704 ± 0.004; (genetic background: wild type) 0.693 ± 0.018.

Consider MNKAEDDISEEE [SUB1 C-terminal 12 aa], for which the protein stability index came to 0.713 ± 0.029 under setting [1] and 0.684 ± 0.011 (genetic background: wild type).

“MNRNKSDVPYLQ [YER053C-A C-terminal 12 aa]”: the protein stability index is, setting by setting: under setting [1], 0.702 ± 0.014; (genetic background: wild type) 0.658 ± 0.027.

On to MPPEHPFYSHYR [YNL193W C-terminal 12 aa], for which the protein stability index by setting is: under setting [1], 0.7283 ± 0.0031; (genetic background: wild type) 0.729 ± 0.01.

On to MQTKIEHYMESI [MRX12 C-terminal 12 aa], for which the protein stability index was found to be 0.712 ± 0.028 under setting [1] and 0.68 ± 0.053 (genetic background: wild type).

Take MRKHLRVSPFLF [YDL071C C-terminal 12 aa]: the protein stability index by setting is: under setting [1], 0.711 ± 0.016; (genetic background: wild type) 0.329 ± 0.0068.

In the case of MVVIVLFLSYRN [YGL177W C-terminal 12 aa], the protein stability index was 0.276 ± 0.034 under setting [1] and 0.275 ± 0.031 (genetic background: wild type).

As for MWPMPSLPWNGM [TSR1 C-terminal 12 aa], the protein stability index under setting [1] was determined as 0.727 ± 0.019 and the protein stability index (genetic background: wild type) was 0.687 ± 0.017.

As for NAASLIGTQQNN [DNF1 C-terminal 12 aa], the protein stability index is, setting by setting: under setting [1], 0.709 ± 0.013; (genetic background: wild type) 0.685 ± 0.013.

Regarding NALKSKQKNKDD [AYR1 C-terminal 12 aa], the protein stability index is, setting by setting: under setting [1], 0.684 ± 0.0082; (genetic background: wild type) 0.698 ± 0.044.

As for NCPGCESKPVIT [SSL1 C-terminal 12 aa], the protein stability index under setting [1] worked out at 0.678 ± 0.016 and the protein stability index (genetic background: wild type) amounted to 0.683 ± 0.0096.

For the sequence NDDSKDEVDIIP [YPR196W C-terminal 12 aa], the protein stability index was 0.69 ± 0.013 under setting [1] and 0.698 ± 0.015 (genetic background: wild type).

For the sequence NDISFAFQYISH [RAD54 C-terminal 12 aa], the protein stability index runs as follows: under setting [1], 0.749 ± 0.014; (genetic background: wild type) 0.683 ± 0.069.
